{"source": "patent US8507275B2", "about": "“Method of inducing differentiation of embryonic stem cells into hemangioblast” (Korea Advanced Institute of Science and Technology (Kaist), priority 2008, dated 2013)", "molecules": {"B1": {"name": "BMP-4: bone morphogenetic protein, growth factor used to regulate differentiation of embryonic stem cells (protein, UniProt P12644 293-408, looked up)", "Bone morphogenetic protein 4": "SPKHHSQRARKKNKNCRRHSLYVDFSDVGWNDWIVAPPGYQAFYCHGDCPFPLADHLNSTNHAIVQTLVNSVNSSIPKACCVPTELSAISMLYLDEYDKVVLKNYQEMVVEGCGCR"}, "B2": {"name": "PDGF-BB: Platelet-derived growth factor-BB (protein, UniProt P01127 82-190, looked up)", "Platelet-derived growth …": "SLGSLTIAEPAMIAECKTRTEVFEISRRLIDRTNANFLVWPPCVEVQRCSGCCNNRNVQCRPTQVQLRPVQVRKIEIVRKKPIFKKATVTLEDHLACKCETVAAARPVT"}}, "key": {"[1]": {"test_system": "human embryonic stem cells", "test": "RT-PCR of mesoderm-specific marker genes in treated human embryonic stem cells", "assay_type": "cell-based", "settings": "PD98059 20˜50 μM, BMP-4 10˜20 ng/ml; 3 days and 5 days; FIG. 2(A)", "protocol": "The human embryonic stem cells cultured in Example 1 were cultured for 3 days in a conditioned medium that contained the MEK1/2 inhibitors, PD98059 and BMP-4 at a concentration of 20˜50 μM and 10˜20 ng/ml, respectively. Then, in order to confirm the differentiation of human embryonic stem cells into mesodermal cells, expression of the mesoderm-specific marker genes was examined by RT-PCR. For analysis of gene expression, total RNA was isolated from cells, and cDNA was synthesized using reverse transcriptase, followed by PCR (polymerase-chain reaction) using primers specific to each gene.\nAs a control group, sample was cultured only in the conditioned medium for 5 days. As experimental groups, cells were cultured for 3 days and 5 days in culture media that were prepared by adding each of PD98059 and BMP-4 to the unconditioned medium at a concentration of 20˜50 μM and 10˜20 ng/ml, respectively. In addition, cells were simultaneously treated with PD98059 and BMP-4, and examined for 3 days and 5 days."}, "[2]": {"test_system": "CD34 positive cells (hESC-derived hemangioblasts)", "test": "RT-PCR of vascular smooth muscle cell-specific markers in CD34 positive cells", "assay_type": "cell-based, human", "settings": "EGM with PDGF-BB 50 ng/ml, about 5 days; FIG. 5(a)", "protocol": "In order to differentiate CD34 positive cells into vascular smooth muscle cells, CD34 positive cells were cultured for about 5 days in EGM (Endothelial cell Growth Medium, clonetics, USA) containing PDGF-BB at a concentration of 50 ng/ml. Expressions of the vascular smooth muscle cell-specific markers were examined by RT-PCR. For analysis of gene expression, total RNA was isolated from cells, and cDNA was synthesized using reverse transcriptase, followed by PCR (polymerase-chain reaction) using primers specific to each gene."}, "[3]": {"test_system": "hESC-derived vascular smooth muscle cells", "test": "Immunofluorescent staining of vascular smooth muscle cell-specific markers", "assay_type": "cell-based, human", "settings": "EGM with PDGF-BB; FIG. 5(b)", "protocol": "In order to confirm the differentiation into vascular smooth muscle cell at protein level, expressions of the vascular smooth muscle cell-specific markers were examined by immunofluorescent staining. In order to stain the hESC-derived vascular smooth muscle cells with the vascular smooth muscle cell-specific markers, α-smooth muscle actin (α-SMA) and calponin, the sample was first fixed in 4% paraformaldehyde at room temperature for 20 min, and then washed with a PBST solution (0.1% Tween-20 in PBS) for 5 min three times. To allow permeabilization of antibodies into the nucleus, a permeating solution (0.1% Triton X-100 in PBS) was added to culture plates, and left at room temperature for 15 min. After 15 min, the permeating solution was removed, and 4% NGS (Normal Goat Serum) was added for blocking at room temperature for 1 hr. […] Next day, in order to examine expressions of the markers (α-SMA, calponin) under a fluorescence microscope, secondary antibodies against the marker antibodies (Alexa 488-conjugated Goat anti-mouse IgG and Alexa 594-conjugated Goat anti-Rabbit poly) were added, and left at room temperature for 1 hr. After 1 hr, the culture plates were washed with a PBST solution for 10 min five times, and a fluorescence microscope was used to examine their expressions."}}, "data": [{"molecule": "COc1cccc(-c2cc(=O)c3ccccc3o2)c1N", "note": "[PD98059, 2-(2-amino-3-methoxyphenyl)-4H-1-Benzopyran-4-one2-(2′-Amino-3′-methoxy)-flavone2-(2-amino-3-methoxyphenyl)-chromone, reference compound]", "values": [{"measurement": "Expressions of the mesoderm-specific markers BRACHYURY, GOOSECOID, TBX-4, TBX-5 and TBX-6 (RT-PCR)", "setting": "[1]", "value": "not observed"}]}, {"molecule": "B1", "values": [{"measurement": "Expressions of the mesoderm-specific markers BRACHYURY, GOOSECOID, TBX-4, TBX-5 and TBX-6 (RT-PCR)", "setting": "[1]", "value": "not observed"}]}, {"molecule": "B2", "values": [{"measurement": "Expression of the vascular smooth muscle cell-specific markers SM22α, SM-MHC, PDGF-B receptor, α-SMA and calponin (RT-PCR)", "setting": "[2]", "value": "found to express"}, {"measurement": "Expressions of the vascular smooth muscle cell-specific markers α-SMA and calponin at protein level (immunofluorescent staining)", "setting": "[3]", "value": "observed"}]}]}
